The values below come from article PMC4205155.

This series concerns the target T1, CREB B-ZIP DNA binding domain (UniProt P16220 269-327).
T1 sequence: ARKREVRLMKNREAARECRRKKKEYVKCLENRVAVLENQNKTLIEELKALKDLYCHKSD
Put plainly: EMSA. (In general: Mobility shift assays separate free from complexed probe on a gel.)

B1: CRE 28-mer unmethylated (U) (dsDNA)
DNA 1: GTCAGTCAGATGACGTCATATCGGTCAG
DNA 2: CTGACCGATATGACGTCATCTGACTGAC
For B1, the binding result is listed as “binds”.
